From patent publication US20240117018A1

What was measured:
Assay in all cases: cell-based or functional assay
[1] = target: ZM249M.PL1 Env pseudovirus (HIV-1)
[2] = target: 191084 B7-19 Env pseudovirus (HIV-1)
[3] = target: MS208.A1 Env pseudovirus (HIV-1)
[4] = target: CNE20 Env pseudovirus (HIV-1)
[5] = target: ZM135M.PL10a Env pseudovirus (HIV-1)

Binder | IC50 [1] [µg/mL] | IC80 [1] [µg/mL] | MPI [1] | IC50 [2] [µg/mL] | IC80 [2] [µg/mL] | MPI [2] | IC50 [3] [µg/mL] | IC80 [3] [µg/mL] | MPI [3] | IC50 [4] [µg/mL] | IC80 [4] [µg/mL] | MPI [4] | IC50 [5] [µg/mL] | IC80 [5] [µg/mL] | MPI [5]
N49P22 (antibody, V domains shown) V domain 1: HIQLLQSGPQVKKSGDTVRISCETSGYNFVDSRIHWVRQTPEKRLRWMGWINPLQGGVNYAPEFQGRIRMTRDTFIDTVYVDLSGLTPADTAYYYCARGIDGKSYPFHFWGHGTRVTVFS V domain 2: RFALTQPASVSGSPGQTITITCAGGSVSWFHFPPGKTPRLIIYESSKRPSGVSPRFSGSQSGSTASLIISGLQSDDEGTYFCSILEFFGRGTLVTVLS | > 50 | > 50 | 0 | 0.343 | 1.64 | 98 | > 50 | > 50 | 17 | > 50 | > 50 | 18 | > 50 | > 50 | 27
N49P23 (antibody, V domains shown) VH: QVRLVQSGAGARKTGASMKLSCSTSGYTFTTHHGHFINWVRQARGQGLEWMGWMNPMTGQMNIEGKFQGRVTLTRDIYSDTAYMEMTRLTTGDTGTYYCARGDFGQNYPFHYWGQGSLVIVSS VL: LSALTQPASVSGSPGQSVTISCSGTNRYLVSWYQQHPDKAPKLIIYDDNKRPSGISDRFSASRPDDTASLTISGLQTGDEATYWCASYERFGGGTRLTVLS | > 50 | > 50 | 2 | 0.013 | 0.043 | 100 | 0.048 | 0.279 | 100 | 45.4 | > 50 | 51 | > 50 | > 50 | 36
